Measurements: article PMC9098913, “In vitro reconstitution of Escherichia coli divisome activation” (Nature Communications, 2022)
Like-named read-outs stand apart in the source and are kept apart here.

Key:
FtsZ = conditions: His-tagged FtsA
Procedure: Co-treadmilling of FtsA with FtsZ relies on the dynamic exchange of FtsA on the membrane. […] To investigate the respective contributions of membrane binding kinetics and FtsA self-interaction on the colocalization dynamics with FtsZ, we wanted to create variants of the two FtsA proteins that are permanently attached to the membrane. […] Accordingly, in these experiments the proteins only differ in their tendency to form oligomers.
To study colocalization of His-tagged variants of FtsA, 0.5–1 µM of Cy5 labelled His-tagged FtsAs were added to the chamber, incubated for 20 min and washed 6x with reaction buffer. […] To control the density of membrane-bound FtsA, SUVs without and with Tris-NTA lipids were mixed to obtain the respective Tris-NTA concentrations. To perform FRET/FRAP experiments, equimolar concentrations of Cy3 and Cy5 labelled His-tagged FtsAs (total 0.5–1 µM) or His-SUMO-Cys were added to a chamber and treated as above. […] FRAP experiments were performed as described before.
Treadmilling dynamics, were quantified using an automated image analysis protocol previously developed by our group. To visualize colocalization of the co-treadmilling FtsZ & FtsA filaments, we used dual-colour videos obtained at an acquisition rate of one frame per 2 s. The two channels were aligned using FIJI’s 3TP align plugin. Both channels were then subjected to the image subtraction protocol and colocalization was measured as described above.

[1] = Membrane off-binding rate (koff) of FtsA from FRAP
Description: We could also use the data from these bleaching experiments to quantify the membrane-binding kinetics and diffusion of membrane-bound proteins by analysing the change of the fluorescence profile during recovery.
Equimolar concentrations of Cy3- and Cy5-labelled FtsA, supplemented with 20% unlabelled FtsA were used to study FRET and FRAP. Five pre-bleach frames were acquired, followed by acceptor photobleaching of a rectangular ROI with 40% 641 nm laser power and a dwell size of 1 µs/pixel, 75% overlapping lines. The recovery of the signal or the increase in donor intensity were measured with either two frames or one frame per second.
Bleaching the acceptor dye leads to an increase in the donor intensity, which can be used to quantify the Foerster Resonance energy transfer (FRET)[48]. FRET efficiency was quantified with E%=Ipost/Ipost+Ipre⋅100 , where Ipost is the intensity of the […] and Ipre is the […]. […] To extract the contribution of both processes, we adjusted a routine recently published by Gerganova et al.[33]. In short, the code provides the contribution of both modes of recovery by analysing the shape of the fluorescence recovery profile. […] Contribution of diffusion leads to a change of the slope of the outer borders of the bleached region (S4h right). Thus, by measuring the change of the slope of the border recovery, diffusion and simple on/off binding can be distinguished. We developed “FRAPdiff”, a graphical user interface, which uses the original fit routine by David Rutkowski. It can be used directly on.tiff movies with annotated bleach regions as ImageJ ROIs. In addition, we added optional bleach correction, user selectable projection axis (x or y), and optional mirroring of the recovery profiles, if bleaching was not symmetric. The original fit routine for estimating the recovery and diffusion dynamics can be found at https://github.com/davidmrutkowski/1DReflectingDiffusion. FRAPdiff is available at 10.5281/zenodo.6400639[49] under the GPLv3 open-source license.

B1: FtsA R286W (protein)
chain: MIKATDRKLVVGLEIGTAKVAALVGEVLPDGMVNIIGVGSCPSRGMDKGGVNDLESVVKCVQRAIDQAELMADCQISSVYLALSGKHISCQNEIGMVPISEEEVTQEDVENVVHTAKSVRVRDEHRVLHVIPQEYAIDYQEGIKNPVGLSGVRMQAKVHLITCHNDMAKNIVKAVERCGLKVDQLIFAGLASSYSVLTEDERELGVCVVDIGGGTMDIAVYTGGALRHTKVIPYAGNVVTSDIAYAFGTPPSDAEAIKVRHGCALGSIVGKDESVEVPSVGGRPPWSLQRQTLAEVIEPRYTELLNLVNEEILQLQEKLRQQGVKHHLAAGIVLTGGAAQIEGLAACAQRVFHTQVRIGAPLNITGLTDYAQEPYYSTAVGLLHYGKESHLNGEAEVEKRVTASVGSWIKRLNSWLRKEF
modifications: Cy3 or Cy5 at the N-terminus in the labelled form (labelled CLEPTGG peptide conjugated to the 5xGly tag by sortagging); unlabelled protein also used; left off: TwinStrep-SUMO, N-terminal, cleaved | 5x
FtsZ; 0.60% Tris NTA, Exp. 1 (statistical analysis)
  Differential PCC: 0.40
FtsZ; 0.60% Tris NTA, Exp. 2 (statistical analysis)
  Differential PCC: 0.46
FtsZ; 0.60% Tris NTA, Exp. 3 (statistical analysis)
  Differential PCC: 0.54
FtsZ; 0.60% Tris NTA, n = 2 (WT), 3 (R286W), sd 0.02, 0.057, p-value 0.67
  Differential PCC, Mean: 0.47
FtsZ; 0.80% Tris NTA, Exp. 1 (statistical analysis)
  Differential PCC: 0.57
FtsZ; 0.80% Tris NTA, Exp. 2 (statistical analysis)
  Differential PCC: 0.48
FtsZ; 0.80% Tris NTA, Exp. 3 (statistical analysis)
  Differential PCC: 0.66
FtsZ; 0.80% Tris NTA, n = 3, 3, sd 0.05 (WT), 0.0749 (R286W), p-value 0.13
  Differential PCC, Mean: 0.57
FtsZ; 1.00% Tris NTA, Exp. 1 (statistical analysis)
  Differential PCC: 0.60
FtsZ; 1.00% Tris NTA, Exp. 2 (statistical analysis)
  Differential PCC: 0.56
FtsZ; 1.00% Tris NTA, Exp. 3 (statistical analysis)
  Differential PCC: 0.51
FtsZ; 1.00% Tris NTA, n = 3, 3, sd 0.12 (WT), 0.0377 (R286W), p-value 5.89E-02
  Differential PCC, Mean: 0.56
FtsZ; 2.00% Tris NTA, Exp. 1 (statistical analysis)
  Differential PCC: 0.44
FtsZ; 2.00% Tris NTA, Exp. 2 (statistical analysis)
  Differential PCC: 0.34
FtsZ; 2.00% Tris NTA, Exp. 3 (statistical analysis)
  Differential PCC: 0.36
FtsZ; 2.00% Tris NTA, n = 3, 3, sd 0.0469 (WT), 0.04 (R286W), p-value 2.27E-03
  Differential PCC, Mean: 0.38
FtsZ; […] Tris NTA, Exp. 1 (statistical analysis)
  Differential PCC: 0.34
FtsZ; […] Tris NTA, Exp. 3 (statistical analysis)
  Differential PCC: 0.37
FtsZ; […] Tris NTA, n = 3, 3, sd 0.0371 (WT), 0.02 (R286W), p-value 5.70E-04
  Differential PCC, Mean: 0.36
[1]; 0.1 µM FtsA + FtsN&Z
  Off binding rate, mean: 0.0939 s
[1]; 0.1 µM FtsA + FtsN
  Off binding rate, mean: 0.062 s
[1]; 0.1 µM FtsA + FtsZ
  Off binding rate, mean: 0.204 s
[1]; 0.1µM FtsA alone, Mean, n=6
  Off binding rate: 0.3263
[1]; 0.1 µM FtsA alone
  Off binding rate, mean: 0.326 s
[1]; 0.1µM FtsA alone, replicate Exp.1
  Off binding rate: 3.18E-01
[1]; 0.1µM FtsA alone, replicate Exp.2
  Off binding rate: 1.79E-01
[1]; 0.1µM FtsA alone, replicate Exp.3
  Off binding rate: 4.12E-01
[1]; 0.1µM FtsA alone, replicate Exp.4
  Off binding rate: 4.03E-01
[1]; 0.1µM FtsA alone, replicate Exp.5
  Off binding rate: 3.20E-01
[1]; 0.1µM FtsA alone, replicate Exp.6
  Off binding rate: 3.25E-01
[1]; 0.1µM, + FtsN&Z, Mean, n=3
  Off binding rate: 0.0939
[1]; 0.1µM, + FtsN&Z, replicate Exp.1
  Off binding rate: 1.11E-01
[1]; 0.1µM, + FtsN&Z, replicate Exp.2
  Off binding rate: 5.81E-02
[1]; 0.1µM, + FtsN&Z, replicate Exp.3
  Off binding rate: 1.13E-01
[1]; 0.1µM, + FtsN, Mean, n=3
  Off binding rate: 0.0620
[1]; 0.1µM, + FtsN, replicate Exp.1
  Off binding rate: 5.84E-02
[1]; 0.1µM, + FtsN, replicate Exp.2
  Off binding rate: 3.36E-02
[1]; 0.1µM, + FtsN, replicate Exp.3
  Off binding rate: 9.39E-02
[1]; 0.1µM, + FtsZ, Mean, n=4
  Off binding rate: 0.2040
[1]; 0.1µM, + FtsZ, replicate Exp.1
  Off binding rate: 1.08E-01
[1]; 0.1µM, + FtsZ, replicate Exp.2
  Off binding rate: 3.38E-01
[1]; 0.1µM, + FtsZ, replicate Exp.3
  Off binding rate: 3.22E-01
[1]; 0.1µM, + FtsZ, replicate Exp.4
  Off binding rate: 4.74E-02
[1]; 0.2 µM FtsA + FtsN&Z
  Off binding rate, mean: 0.099 s
[1]; 0.2 µM FtsA + FtsN
  Off binding rate, mean: 0.171 s
[1]; 0.2 µM FtsA + FtsZ
  Off binding rate, mean: 0.227 s
[1]; 0.2µM FtsA alone, Mean, n=6
  Off binding rate: 0.2513
[1]; 0.2 µM FtsA alone
  Off binding rate, mean: 0.251 s
[1]; 0.2µM FtsA alone, replicate Exp.1
  Off binding rate: 2.65E-01
[1]; 0.2µM FtsA alone, replicate Exp.2
  Off binding rate: 3.55E-01
[1]; 0.2µM FtsA alone, replicate Exp.3
  Off binding rate: 3.00E-01
[1]; 0.2µM FtsA alone, replicate Exp.4
  Off binding rate: 1.69E-01
[1]; 0.2µM FtsA alone, replicate Exp.5
  Off binding rate: 2.80E-01
[1]; 0.2µM FtsA alone, replicate Exp.6
  Off binding rate: 1.38E-01
[1]; 0.2µM, + FtsN&Z, Mean, n=6
  Off binding rate: 0.0990
[1]; 0.2µM, + FtsN&Z, replicate Exp.1
  Off binding rate: 2.98E-02
[1]; 0.2µM, + FtsN&Z, replicate Exp.2
  Off binding rate: 2.05E-01
[1]; 0.2µM, + FtsN&Z, replicate Exp.3
  Off binding rate: 6.45E-02
[1]; 0.2µM, + FtsN&Z, replicate Exp.4
  Off binding rate: 4.84E-02
[1]; 0.2µM, + FtsN&Z, replicate Exp.5
  Off binding rate: 1.35E-01
[1]; 0.2µM, + FtsN&Z, replicate Exp.6
  Off binding rate: 1.11E-01
[1]; 0.2µM, + FtsN, Mean, n=4
  Off binding rate: 0.1710
[1]; 0.2µM, + FtsN, replicate Exp.1
  Off binding rate: 5.13E-02
[1]; 0.2µM, + FtsN, replicate Exp.2
  Off binding rate: 3.51E-01
[1]; 0.2µM, + FtsN, replicate Exp.3
  Off binding rate: 1.05E-01
[1]; 0.2µM, + FtsN, replicate Exp.4
  Off binding rate: 1.76E-01
[1]; 0.2µM, + FtsZ, Mean, n=6
  Off binding rate: 0.2270
[1]; 0.2µM, + FtsZ, replicate Exp.1
  Off binding rate: 2.24E-01
[1]; 0.2µM, + FtsZ, replicate Exp.2
  Off binding rate: 4.14E-01
[1]; 0.2µM, + FtsZ, replicate Exp.3
  Off binding rate: 9.28E-02
[1]; 0.2µM, + FtsZ, replicate Exp.4
  Off binding rate: 4.05E-01
[1]; 0.2µM, + FtsZ, replicate Exp.5
  Off binding rate: 1.38E-01
[1]; 0.2µM, + FtsZ, replicate Exp.6
  Off binding rate: 8.76E-02
[1]; 0.4 µM FtsA + FtsN&Z
  Off binding rate, mean: 0.101 s
[1]; 0.4 µM FtsA + FtsN
  Off binding rate, mean: 0.18 s
[1]; 0.4 µM FtsA + FtsZ
  Off binding rate, mean: 0.179 s
[1]; 0.4µM FtsA alone, Mean, n=9
  Off binding rate: 0.3738
[1]; 0.4 µM FtsA alone
  Off binding rate, mean: 0.374 s
[1]; 0.4µM FtsA alone, replicate Exp.1
  Off binding rate: 7.99E-01
[1]; 0.4µM FtsA alone, replicate Exp.2
  Off binding rate: 6.65E-01
[1]; 0.4µM FtsA alone, replicate Exp.3
  Off binding rate: 6.54E-01
[1]; 0.4µM FtsA alone, replicate Exp.4
  Off binding rate: 2.78E-01
[1]; 0.4µM FtsA alone, replicate Exp.5
  Off binding rate: 1.57E-01
[1]; 0.4µM FtsA alone, replicate Exp.6
  Off binding rate: 1.25E-01
